From paper PMC9546532 (Proceedings of the National Academy of Sciences of the …, 2022)

Biological target: T1, Ela1^(1-143) of the Elc1/Ela1^(1-143) complex (separate chains) (S. cerevisiae, UniProt P53861 1-143)
T1 sequence (looked up): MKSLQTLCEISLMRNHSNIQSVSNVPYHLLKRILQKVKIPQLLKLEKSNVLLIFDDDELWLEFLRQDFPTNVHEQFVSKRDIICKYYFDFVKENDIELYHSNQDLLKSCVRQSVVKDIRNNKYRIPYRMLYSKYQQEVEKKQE
Assay: SEC + AUC

binding result: binds
B1: Elc1 of the Elc1/Ela1^(1-143) complex (separate chains) (natural protein, S. cerevisiae, UniProt Q03071 1-99, looked up)
chain: MSQDFVTLVSKDDKEYEISRSAAMISPTLKAMIEGPFRESKGRIELKQFDSHILEKAVEYLNYNLKYSGVSEDDDEIPEFEIPTEMSLELLLAADYLSI
